In PMC3644619 (Gene, 2008):

Key:
[1] = molecular target: SF1 (steroidogenic factor 1) (UniProt Q04752 1-461); test: two-hybrid
[2] = molecular target: T1, hormone-binding domain (HBD) of ERR1 (UniProt P11474 1-423); test: two-hybrid
T1 sequence (looked up): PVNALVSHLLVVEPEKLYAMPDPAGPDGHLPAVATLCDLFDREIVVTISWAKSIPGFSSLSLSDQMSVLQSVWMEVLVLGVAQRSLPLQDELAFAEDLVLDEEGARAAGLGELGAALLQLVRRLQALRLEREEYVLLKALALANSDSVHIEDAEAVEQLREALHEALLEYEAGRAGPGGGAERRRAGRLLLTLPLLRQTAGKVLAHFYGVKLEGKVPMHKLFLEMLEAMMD

Chain of SF1 (steroidogenic factor 1) (Q04752 whole entry, the tested form may be a part): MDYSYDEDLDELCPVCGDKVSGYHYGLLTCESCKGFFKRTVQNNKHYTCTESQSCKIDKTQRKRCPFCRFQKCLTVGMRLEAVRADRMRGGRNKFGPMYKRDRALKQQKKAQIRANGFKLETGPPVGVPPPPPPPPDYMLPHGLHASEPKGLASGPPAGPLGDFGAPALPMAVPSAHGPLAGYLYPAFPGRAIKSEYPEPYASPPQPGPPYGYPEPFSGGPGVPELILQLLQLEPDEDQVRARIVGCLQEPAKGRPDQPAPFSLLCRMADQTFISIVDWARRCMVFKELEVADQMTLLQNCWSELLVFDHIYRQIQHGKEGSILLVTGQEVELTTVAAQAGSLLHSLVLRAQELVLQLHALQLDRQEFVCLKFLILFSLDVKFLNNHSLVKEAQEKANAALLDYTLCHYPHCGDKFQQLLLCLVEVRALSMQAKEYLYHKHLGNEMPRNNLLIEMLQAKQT

fold increase of affinity compared to fl PNRC (two-hybrid β-galactosidase) [1]: > 10 fold
fold increase of affinity compared to fl PNRC (two-hybrid β-galactosidase) [2]: > 10 fold
B1: PNRC1d (natural protein)
chain: not shown
